Measurements: US20210130437A1
Blank lines part the entries; values can stand above or below the substance they belong to.

Tests used:
[1] = molecular target: TIGIT (Homo sapiens (Human)) (UniProt Q495A1); assay: flow cytometry, TIGIT-expressing cells, secondary reagent alone
CD112R [2] = molecular target: CD112R (UniProt Q6DKI7); assay: flow cytometry, CD112R-expressing cells, secondary reagent alone
[3] = molecular target: CD226 (Homo sapiens (Human)) (UniProt Q15762); assay: flow cytometry, CD226-expressing cells, secondary reagent alone
CD96 [4] = molecular target: T1, CD96 (UniProt P40200); assay: flow cytometry, CD96-expressing cells, secondary reagent alone
T1 sequence (looked up): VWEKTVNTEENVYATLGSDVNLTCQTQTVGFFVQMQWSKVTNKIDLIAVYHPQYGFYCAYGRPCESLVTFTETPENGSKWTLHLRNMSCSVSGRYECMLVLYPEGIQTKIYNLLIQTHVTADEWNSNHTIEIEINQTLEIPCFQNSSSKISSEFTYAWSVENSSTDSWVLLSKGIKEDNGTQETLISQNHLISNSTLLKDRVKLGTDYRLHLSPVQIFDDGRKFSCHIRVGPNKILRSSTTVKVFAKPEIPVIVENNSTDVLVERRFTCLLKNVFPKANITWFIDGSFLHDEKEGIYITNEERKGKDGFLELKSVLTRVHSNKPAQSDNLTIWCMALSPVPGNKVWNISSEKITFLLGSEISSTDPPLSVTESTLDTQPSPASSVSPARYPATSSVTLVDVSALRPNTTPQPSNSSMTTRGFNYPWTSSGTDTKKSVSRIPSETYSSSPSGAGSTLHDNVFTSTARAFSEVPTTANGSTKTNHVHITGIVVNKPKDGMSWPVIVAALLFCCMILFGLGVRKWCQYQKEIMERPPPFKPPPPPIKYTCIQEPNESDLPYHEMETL

CD96 [5] = molecular target: T1, CD96; assay: flow cytometry, 100 nM Fc fusion on cells expressing CD96
[6] = molecular target: human PD-1 and human TIGIT co-expressed on Jurkat cells (Jurkat/PD-1/TIGIT cells) (human); assay: flow cytometry, Jurkat/PD-1/TIGIT cells
[7] = molecular target: human PD-1 expressed on cells (Jurkat/PD-1 cells) (human) (UniProt Q15116); assay: flow cytometry, Jurkat/PD-1 cells
[8] = molecular target: human TIGIT expressed on cells (Jurkat/TIGIT cells) (human) (UniProt Q495A1); assay: flow cytometry, Jurkat/TIGIT cells
[9] = molecular target: rB7H6.Fc (recombinant B7-H6 Fc fusion protein, R&D Systems) (human) (UniProt Q68D85); assay: flow cytometry of yeast-displayed parental NKp30 stained with […] rB7H6.Fc
CD112R [10] = molecular target: CD112R (UniProt Q6DKI7); assay: flow cytometry, CD112R-expressing cells, 100 nM
[11] = molecular target: PD-1 stably expressed on Jurkat/IL-2 reporter cells (Jurkat/PD-1) (human) (UniProt Q15116); assay: cell-based or functional assay
Sequence of PD-1 stably expressed on Jurkat/IL-2 reporter cells (Jurkat/PD-1) (human) (Q15116 25-288): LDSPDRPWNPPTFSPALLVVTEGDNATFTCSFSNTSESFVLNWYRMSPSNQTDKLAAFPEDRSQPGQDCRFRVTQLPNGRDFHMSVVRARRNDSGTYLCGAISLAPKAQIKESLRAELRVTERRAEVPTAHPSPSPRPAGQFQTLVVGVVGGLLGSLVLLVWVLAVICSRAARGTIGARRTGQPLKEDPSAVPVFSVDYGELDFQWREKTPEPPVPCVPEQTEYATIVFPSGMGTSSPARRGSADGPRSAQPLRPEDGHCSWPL

Sequence of human PD-1 and human TIGIT co-expressed on Jurkat cells (Jurkat/PD-1/TIGIT cells) (human) (chain, as listed by the source, chain 1 of 2): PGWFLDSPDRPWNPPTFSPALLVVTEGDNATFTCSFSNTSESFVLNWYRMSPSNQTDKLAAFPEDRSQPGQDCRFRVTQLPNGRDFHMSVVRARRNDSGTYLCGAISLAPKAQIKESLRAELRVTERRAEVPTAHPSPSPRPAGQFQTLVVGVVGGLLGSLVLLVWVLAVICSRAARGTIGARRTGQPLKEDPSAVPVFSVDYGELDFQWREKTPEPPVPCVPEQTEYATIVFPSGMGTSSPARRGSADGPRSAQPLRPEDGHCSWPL
Sequence of human PD-1 and human TIGIT co-expressed on Jurkat cells (Jurkat/PD-1/TIGIT cells) (human) (chain, as listed by the source, chain 2 of 2): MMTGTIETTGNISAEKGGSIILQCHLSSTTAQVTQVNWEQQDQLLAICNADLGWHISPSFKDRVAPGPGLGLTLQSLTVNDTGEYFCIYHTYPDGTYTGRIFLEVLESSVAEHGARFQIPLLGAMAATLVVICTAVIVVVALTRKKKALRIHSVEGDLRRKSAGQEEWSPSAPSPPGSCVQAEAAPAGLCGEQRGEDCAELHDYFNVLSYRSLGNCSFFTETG
Sequence of human PD-1 expressed on cells (Jurkat/PD-1 cells) (human) (Q15116 21-288): as the sequence (chain, as listed by the source, chain 1 of 2) above
Sequence of CD112R (Q6DKI7 whole entry): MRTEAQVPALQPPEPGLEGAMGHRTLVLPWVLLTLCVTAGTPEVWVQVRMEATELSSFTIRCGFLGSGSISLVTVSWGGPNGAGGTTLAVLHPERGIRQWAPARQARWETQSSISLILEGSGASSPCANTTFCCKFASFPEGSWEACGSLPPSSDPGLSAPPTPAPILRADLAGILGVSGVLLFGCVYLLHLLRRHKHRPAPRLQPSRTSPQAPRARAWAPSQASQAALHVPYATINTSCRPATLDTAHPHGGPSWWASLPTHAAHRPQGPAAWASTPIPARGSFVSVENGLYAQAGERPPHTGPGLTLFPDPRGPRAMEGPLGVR
Sequence of CD226 (Homo sapiens (Human)) (Q15762 19-336): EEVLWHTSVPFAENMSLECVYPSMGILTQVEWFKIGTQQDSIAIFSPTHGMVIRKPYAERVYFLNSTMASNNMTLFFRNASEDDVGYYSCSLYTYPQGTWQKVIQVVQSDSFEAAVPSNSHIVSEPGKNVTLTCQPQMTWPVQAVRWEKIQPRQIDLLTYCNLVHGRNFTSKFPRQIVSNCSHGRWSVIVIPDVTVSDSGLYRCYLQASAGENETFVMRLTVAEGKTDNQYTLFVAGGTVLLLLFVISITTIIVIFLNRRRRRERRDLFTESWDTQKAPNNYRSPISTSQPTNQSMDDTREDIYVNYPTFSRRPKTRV
Sequence of rB7H6.Fc (recombinant B7-H6 Fc fusion protein, R&D Systems) (human) (Q68D85 25-262 limits assumed): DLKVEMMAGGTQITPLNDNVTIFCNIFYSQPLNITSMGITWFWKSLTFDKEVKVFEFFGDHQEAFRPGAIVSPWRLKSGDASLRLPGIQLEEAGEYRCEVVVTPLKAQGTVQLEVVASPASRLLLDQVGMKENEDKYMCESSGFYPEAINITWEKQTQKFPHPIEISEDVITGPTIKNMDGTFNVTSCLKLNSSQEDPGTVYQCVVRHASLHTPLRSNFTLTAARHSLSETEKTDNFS
Sequence of human TIGIT expressed on cells (Jurkat/TIGIT cells) (human) (Q495A1 22-244): as the sequence (chain, as listed by the source, chain 2 of 2) above
Sequence of TIGIT (Homo sapiens (Human)) (Q495A1 22-244): as the sequence (chain, as listed by the source, chain 2 of 2) above

MFI at 20 nM [1]: 1140
MFI at 20 nM (CD112R [2]): 1010
MFI at 20 nM [3]: 1010
MFI at 20 nM (CD96 [4]): 1060
Substance: Anti-hFc PE (antibody)

MFI at 100 nM (CD96 [5]): 2850
Substance: CD112 variant IgV-Fc fusion V19A, N47K, N106Y, K116E, S118Y

MFI at 6.25 nM [6]: 48 MFI
Substance: Fc Control (heterodimer) (from UniProt P0DOX5 218-449; P0DOX5 218-449)

MFI at 6.25 nM [6]: 66 MFI
Substance: Fc Control (homodimer) (from UniProt P0DOX5 218-449)

Fold increase over wildtype PD-L1 IgV-Fc [7]: 0 fold
MFI at 6.25 nM [7]: 41 MFI
MFI at 50 nM [7]: 198 MFI
MFI at 6.25 nM [8]: 48 MFI
MFI at 6.25 nM [6]: 41 MFI
Substance: Human IgG (irrelevant Ig control) (antibody)

Fold increase over wildtype PD-L1 IgV-Fc [7]: 15.4 fold
MFI at 50 nM [7]: 80500 MFI
Substance: PD-L1 variant IgV-Fc I20L/K28E/D43G/N45D/V58A/Q89R (Fc fusion)

MFI at 6.25 nM [6]: 249 MFI
Substance: Wild Type CD155 full ECD Fc (from UniProt P15151 21-343) (Fc fusion)

MFI at 6.25 nM [6]: 314 MFI
Substance: Wild Type PD-L2 full ECD Fc (from UniProt Q9BQ51 20-220) (Fc fusion)

MFI [9]: 90
Substance: parental NKp30 strain (wild-type NKp30 IgC-like domain displayed on yeast) (from UniProt O14931 19-134) (receptor)

MFI at 100 nM (CD112R [10]): 2050
Substance: variant CD112 IgV-Fc R12W, Y33H, Q79R, V101M, A112V (Fc fusion)

MFI at 100 nM (CD112R [10]): 2350
Substance: variant CD112 IgV-Fc Y33H, A112V, S118Y (Fc fusion)

MFI at 6.25 nM [6]: 20300 MFI
Substance: variant PD-L2 IgV-Fc H15Q/T47A/K65R/S67L/Q82R/V89D (Fc fusion)

Fold increase over wildtype PD-L2 IgV-Fc (IFN gamma, MLR) [11]: 0.61 fold
IFN gamma levels pg/mL (MLR) [11]: 836 pg/mL
Substance: variant PD-L2 IgV-Fc I13V,H15Q,T47A,E58G,S67L,Q82R,V89D (Fc fusion)
